tested on: RAJI cells; test: JNG assay, co-culture with RAJI cells; assay type: cell-based; settings: JNG cells expressing construct, co-culture with Raji
Outline: (§1)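 Jurkat NFAT-GFP (JNG) cells stably transduced with SARs by lentivirus, with drug selection where the construct carried a resistance gene, then co-cultured with target cells at E:T ~1:2 for ~4–18 h. % GFP-positive cells measured by FACS against parental JNG; +/- to 5+ correspond to ~5–50% GFP-positive.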

Molecule	NFAT-GFP ASSAY: Raji
22083 (protein) MALPVTALLLPLALLLHAARPQLQLQESGPGLVKPSETLSLTCTVSGDSISSGDYYWGWIRQPPGKGLEWIGHIYYSGVTYYNPSLKSRVTISVDTSRNQFSLKLSSVTAADTAVYYCTREDSSNWRSRGQGTLVTVSSLESGGGGSFEEVQLLESGGGLVQPGGSLRLSCAASGFTFSSYAMSWVRQAPGKGLEWVSSISGSGDYIYYADSVKGRFTISRDISKNTLYLQMNSLRAEDTAVYYCAKEGTGANSSLADYRGQGTLVTVSSTRDKTHTCPPCPAIPEDTFFPSPESSCDVKLVEKSFETDTNLNFQNLSVIGFRILLLKVAGFNLLMTLRLWSS	+/- (refer to approximately 5%, 10%, 20%, 30%, 40% and 50% GFP positive cells)

tested on: L363 cells; test: JNG assay, co-culture with L363 cells; assay type: cell-based; settings: co-culture with L363
Outline: as §1

Molecule	NFAT-GFP ASSAY: L363
22083 (protein) MALPVTALLLPLALLLHAARPQLQLQESGPGLVKPSETLSLTCTVSGDSISSGDYYWGWIRQPPGKGLEWIGHIYYSGVTYYNPSLKSRVTISVDTSRNQFSLKLSSVTAADTAVYYCTREDSSNWRSRGQGTLVTVSSLESGGGGSFEEVQLLESGGGLVQPGGSLRLSCAASGFTFSSYAMSWVRQAPGKGLEWVSSISGSGDYIYYADSVKGRFTISRDISKNTLYLQMNSLRAEDTAVYYCAKEGTGANSSLADYRGQGTLVTVSSTRDKTHTCPPCPAIPEDTFFPSPESSCDVKLVEKSFETDTNLNFQNLSVIGFRILLLKVAGFNLLMTLRLWSS	+/- (refer to approximately 5%, 10%, 20%, 30%, 40% and 50% GFP positive cells)
22098 (protein) MALPVTALLLPLALLLHAARPQVQLVESGGGLVQPGGSLRLSCAASGFTFTNHAMSWVRQAPGKGLELVSSISGNGRTTYYADSVKGRFTISRDISKNTLDLQMNSLRAEDTAVYYCAKDGGETLVDSRGQGTLVTVSSLEGQPKANPTVTLFPPSSEELQANKATLVCLISDFYPGAVTVAWKADGSPVKAGVETTKPSKQSNNKYAASSYLSLTPEQWKSHRSYSCQVTHEGSTVEKTVAPTECSPIKTDVITMDPKDNCSKDANDTLLLQLTNTSAYYMYLLLLLKSVVYFAIITCCLLRRTAFCCNGEKSRAKRSGSGATNFSLLKQAGDVEENPGPTSMDWIWRILFLVGAATGAHSFEEVQLLESGGGLVQPGGSLRLSCAASGFTFSSYAMSWVRQAPGKGLEWVSSISGSGDYIYYADSVKGRFTISRDISKNTLYLQMNSLRAEDTAVYYCAKEGTGANSSLADYRGQGTLVTVSSTRASTKGPSVFPLAPSSKSTSGGTAALGCLVKDYFPEPVTVSWNSGALTSGVHTFPAVLQSSGLYSLSSVVTVPSSSLGTQTYICNVNHKPSNTKVDKRVEPKSCEVKTDSTDHVKPKETENTKQPSKSCHKPKAIVHTEKVNMMSLTVLGLRMLFAKTVAVNFLLTAKLFFLRAKRSGSGVKQTLNFDLLKLAGDVESNPGPSRGHMTEYKPTVRLATRDDVPRAVRTLAAAFADYPATRHTVDPDRHIERVTELQELFLTRVGLDIGKVWVADDGAAVAVWTTPESVEAGAVFAEIGPRMAELSGSRLAAQQQMEGLLAPHRPKEPAWFLATVGVSPDHQGKGLGSAVVLPGVEAAERAGVPAFLETSAPRNLPFYERLGFTVTADVEVPEGPRTWCMTRKPGA	L363 (4+) (refer to approximately 5%, 10%, 20%, 30%, 40% and 50% GFP positive cells)
22099 (protein) MALPVTALLLPLALLLHAARPQVQLVESGGGLVQPGGSLRLSCAASGFTFTNHAMSWVRQAPGKGLELVSSISGNGRTTYYADSVKGRFTISRDISKNTLDLQMNSLRAEDTAVYYCAKDGGETLVDSRGQGTLVTVSSLEGQPKANPTVTLFPPSSEELQANKATLVCLISDFYPGAVTVAWKADGSPVKAGVETTKPSKQSNNKYAASSYLSLTPEQWKSHRSYSCQVTHEGSTVEKTVAPTECSGRADCGFTSESYQQGVLSATILYEILLGKATLYAVLVSALVLMAMVKRKDSRGRAKRSGSGATNFSLLKQAGDVEENPGPTSMDWIWRILFLVGAATGAHSFEEVQLLESGGGLVQPGGSLRLSCAASGFTFSSYAMSWVRQAPGKGLEWVSSISGSGDYIYYADSVKGRFTISRDISKNTLYLQMNSLRAEDTAVYYCAKEGTGANSSLADYRGQGTLVTVSSTRASTKGPSVFPLAPSSKSTSGGTAALGCLVKDYFPEPVTVSWNSGALTSGVHTFPAVLQSSGLYSLSSVVTVPSSSLGTQTYICNVNHKPSNTKVDKRVEPKSCIPEDTFFPSPESSCDVKLVEKSFETDTNLNFQNLSVIGFRILLLKVAGFNLLMTLRLWSSRAKRSGSGVKQTLNFDLLKLAGDVESNPGPSRGHMTEYKPTVRLATRDDVPRAVRTLAAAFADYPATRHTVDPDRHIERVTELQELFLTRVGLDIGKVWVADDGAAVAVWTTPESVEAGAVFAEIGPRMAELSGSRLAAQQQMEGLLAPHRPKEPAWFLATVGVSPDHQGKGLGSAVVLPGVEAAERAGVPAFLETSAPRNLPFYERLGFTVTADVEVPEGPRTWCMTRKPGA	L363 (2+) (refer to approximately 5%, 10%, 20%, 30%, 40% and 50% GFP positive cells)
22090 (protein) MALPVTALLLPLALLLHAARPQLQLQESGPGLVKPSETLSLTCTVSGDSISSGDYYWGWIRQPPGKGLEWIGHIYYSGVTYYNPSLKSRVTISVDTSRNQFSLKLSSVTAADTAVYYCTREDSSNWRSRGQGTLVTVSSLEDKTHTCPPCPAGRADCGFTSESYQQGVLSATILYEILLGKATLYAVLVSALVLMAMVKRKDSRGRAKRSGSGATNFSLLKQAGDVEENPGPTSMDWIWRILFLVGAATGAHSFEVQLLESGGGLIQPGGSLRLSCAASGFTFSSHAMTWVRQAPGKGLEWVSAISGSGDYTHYADSVKGRFTISRDNSKNTVYLQMNSLRAEDSAVYYCAKDEDGGSLLGHRGQGTLVTVSSTRIQNPDPAVYQLRDSKSSDKSVCLFTDFDSQTNVSQSKDSDVYITDKCVLDMRSMDFKSNSAVAWSNKSDFACANAFNNSIIPEDTFFPSPESSCDVKLVEKSFETDTNLNFQNLSVIGFRILLLKVAGFNLLMTLRLWSSRAKRSGSGVKQTLNFDLLKLAGDVESNPGPSRGHMTEYKPTVRLATRDDVPRAVRTLAAAFADYPATRHTVDPDRHIERVTELQELFLTRVGLDIGKVWVADDGAAVAVWTTPESVEAGAVFAEIGPRMAELSGSRLAAQQQMEGLLAPHRPKEPAWFLATVGVSPDHQGKGLGSAVVLPGVEAAERAGVPAFLETSAPRNLPFYERLGFTVTADVEVPEGPRTWCMTRKPGA	3+ (refer to approximately 5%, 10%, 20%, 30%, 40% and 50% GFP positive cells)
22153 (protein) MALPVTALLLPLALLLHAARPACEVQLLESGGGLIQPGGSLRLSCAASGFTFSSHAMTWVRQAPGKGLEWVSAISGSGDYTHYADSVKGRFTISRDNSKNTVYLQMNSLRAEDSAVYYCAKDEDGGSLLGHRGQGTLVTVSSGTGGGGSGGGGSGGGGSEFSYVLTQPPSVSVAPGQTARITCGGNNIGGKSVHWYQQPPGQAPVVVVYDDSDRPSGIPERFSGSNSGNTATLTISRVEAGDEAVYYCQVWDSSSDHVVFGGGTKLTVLLEGQPKANPTVTLFPPSSEELQANKATLVCLISDFYPGAVTVAWKADGSPVKAGVETTKPSKQSNNKYAASSYLSLTPEQWKSHRSYSCQVTHEGSTVEKTVAPTECSPIKTDVITMDPKDNCSKDANDTLLLQLTNTSAYYMYLLLLLKSVVYFAIITCCLLRRTAFCCNGEKSRAKRSGSGATNFSLLKQAGDVEENPGPTSATMDWIWRILFLVGAATGAHSGPQVQLQESGGGLAQAGGSLRLSCAASGRTFSMGWFRQAPGKEREFVAAITYSGGSPYYASSVRGRFTISRDNAKNTVYLQMNSLKPEDTAVYYCAANPTYGSDWNAENWGQGTQVTVSSGSGGGGSGGGGSGGGGSFEQLQLQESGPGLVKPSETLSLTCTVSGGSISSSSYFWGWIRQPPGKGLEWIGSIYYSGITYYNPSLKSRVTISVDTSKNQFSLKLSSVTAADTAVYYCARHDGAVAGLFDYWGQGTLVTVSSATRASTKGPSVFPLAPSSKSTSGGTAALGCLVKDYFPEPVTVSWNSGALTSGVHTFPAVLQSSGLYSLSSVVTVPSSSLGTQTYICNVNHKPSNTKVDKRVEPKSCEVKTDSTDHVKPKETENTKQPSKSCHKPKAIVHTEKVNMMSLTVLGLRMLFAKTVAVNFLLTAKLFFLRAKRSGSGVKQTLNFDLLKLAGDVESNPGPSRGHMTEYKPTVRLATRDDVPRAVRTLAAAFADYPATRHTVDPDRHIERVTELQELFLTRVGLDIGKVWVADDGAAVAVWTTPESVEAGAVFAEIGPRMAELSGSRLAAQQQMEGLLAPHRPKEPAWFLATVGVSPDHQGKGLGSAVVLPGVEAAERAGVPAFLETSAPRNLPFYERLGFTVTADVEVPEGPRTWCMTRKPGA	2+ (refer to approximately 5%, 10%, 20%, 30%, 40% and 50% GFP positive cells)
22152 (protein) MALPVTALLLPLALLLHAARPEVQLLESGGGLVQPGGSLRLSCAASGFTFSSYAMSWVRQAPGKGLEWVSSISGSGDYIYYADSVKGRFTISRDISKNTLYLQMNSLRAEDTAVYYCAKEGTGANSSLADYRGQGTLVTVSSGTGGGGSGGGGSGGGGSEFSYVLTQPPSVSVAPGQTARITCGGNNIGGKSVHWYQQPPGQAPVVVVYDDSDRPSGIPERFSGSNSGNTATLTISRVEAGDEAVYYCQVWDSSSDHVVFGGGTKLTVLLEDLKNVFPPEVAVFEPSEAEISHTQKATLVCLATGFYPDHVELSWWVNGKEVHSGVCTDPQPLKEQPALNDSRYCLSSRLRVSATFWQNPRNHFRCQVQFYGLSENDEWTQDRAKPVTQIVSAEAWGRADCGFTSESYQQGVLSATILYEILLGKATLYAVLVSALVLMAMVKRKDSRGRAKRSGSGATNFSLLKQAGDVEENPGPTSMDWIWRILFLVGAATGAHSFEQLQLQESGPGLVKPSETLSLTCTVSGGSISSSSYFWGWIRQPPGKGLEWIGSIYYSGITYYNPSLKSRVTISVDTSKNQFSLKLSSVTAADTAVYYCARHDGAVAGLFDYWGQGTLVTVSSATRIQNPDPAVYQLRDSKSSDKSVCLFTDFDSQTNVSQSKDSDVYITDKCVLDMRSMDFKSNSAVAWSNKSDFACANAFNNSIIPEDTFFPSPESSCDVKLVEKSFETDTNLNFQNLSVIGFRILLLKVAGFNLLMTLRLWSSRAKRSGSGVKQTLNFDLLKLAGDVESNPGPSRGHMTEYKPTVRLATRDDVPRAVRTLAAAFADYPATRHTVDPDRHIERVTELQELFLTRVGLDIGKVWVADDGAAVAVWTTPESVEAGAVFAEIGPRMAELSGSRLAAQQQMEGLLAPHRPKEPAWFLATVGVSPDHQGKGLGSAVVLPGVEAAERAGVPAFLETSAPRNLPFYERLGFTVTADVEVPEGPRTWCMTRKPGA	2+ (refer to approximately 5%, 10%, 20%, 30%, 40% and 50% GFP positive cells)

— patent US20230212319A1, “NOVEL ANTIGEN BINDING DOMAINS AND SYNTHETIC ANTIGEN RECEPTORS INCORPORATING THE SAME” (University of Southern California, priority 2020, published 2023)
